Experimental data taken from patent US20240200091A1, “USE OF PROTOPORPHYRINOGEN OXIDASE” (BEIJING DABEINONG BIOTECHNOLOGY CO., LTD., priority 2021, published 2024).

B1: PPO9A: nucleotide sequence encoding microbial protoporphyrinogen oxidase PPO9 (SEQ ID NO:9), Arabidopsis thaliana/soybean common codon usage bias (nucleic acid)
DNA: ATGGAGAAAGTTCTTCTACTGCATTCTTCCTCTGATGGTCAGACAGTGAAGATTCTCAGACATATTGAAACAACATTAGGTGGTGATTACCAATGTGAGCTTGTGGATTTGAATACTCTGCCGACTGTTGATTTTGCTGATTATGACCGTGTCTTAGTAGGCGCGAGTATACGCTATGGGCACCTCAACAAGAAACTCTACCAGTTTATAGAGAGATACAGAGATGAATTGGACCAAAACAAAGTAGGTTTCTTCTGCGTGAATCTTACTGCAAGGAAAGAAGGAAAGAATACGCCTGAGACTAGCGTTTACATGAAGACCTTTTTGAAGAAGTCGCCATGGTGTCCAAAATTGCAAGAAGTTTTCGCTGGAGCTCTTCGTTATCCTCGGTATGGATGGTTTGATAGGGTCATGATTCAGTTCATCATGAGAATCACGGGGGGAGAAACCGACACATCAAAAGAGGTTGAGTATACTGATTGGCAAAAGGTTGAAGCTTTTGCAGCCCGATTCAAACATTACTGA
modifications: The nucleotide sequence of PPO9A
B2: PPO10A: nucleotide sequence encoding microbial protoporphyrinogen oxidase PPO10 (SEQ ID NO:10), Arabidopsis thaliana/soybean common codon usage bias (nucleic acid)
DNA: ATGAAAGCTCTCTTTCTGTACTCGTCTCAAGAAGGACAGACAAGGAAGATTATAGAGAGAATCGCCCAGCAAATGCCGGAGTATGATTGTGATATTCAAGATCTTCATCAAGTAAGCGACATTGCATTAGCTGATTATGACAAGATCCTAATAGGGGCCAGTATCCGATATGGAAGATTGAATGATAAACTATATCAATTTATTCAGAGATATCTTCCCGATCTCCGCTCCAACAAAGCAGCTTTCTTCTGCGTCAATCTTACGGCGAGAAAGGAAGAACAAGGAAAAGACACCCCAGAAGGTTCTGTTTACATCCAGACTTTCTTGAAGAAATCACCATGGCAACCTGAGAGGATTGCAGTGTTTGCTGGTGCTCTTTACTATCCTCGTTACAGATGGTTTGATAAGATGATGATTCGGTTAATAATGACTTTGACCGGCGGTGAAACTGATACATCAAAAGAAGTTGAGTACACAAATTGGAACAAGGTTTCTCAGTTTGCGGAGCAGTTCCGTAACTGGTGA
modifications: The nucleotide sequence of PPO10A
B3: PPO7A: nucleotide sequence encoding microbial protoporphyrinogen oxidase PPO7 (SEQ ID NO:7), Arabidopsis thaliana/soybean common codon usage bias (nucleic acid)
DNA: ATGGATAAGATATTAGTCCTGTACAGTAGTCAAGATGGGCAGACGAGGAAGATTGTTGATGCAATGCTTGAAGAAATCTCTGGTTGTGATGTTGTGATTCAAGACTTGCACACACTACCGAAATGCAACCTATCCAAATATGCGAAAGTGTTGATTGGTGCTTCCATAAGGTATGGAAACTTCCATCCTTCTCTTCTCAGCTTCATCAATGCTCATCATGAACAACTTGAGGTTGCTAATGCGGCCTTCTTCTGTGTAAATCTCACTGCCCGAAAACCTGAGAAGCAAACTCCCCAGACAAACGCTTACATGAAGAAGTTTTTACGCTTATCACCATGGAAACCAAAGACCCTTGGAGTGTTTGCAGGAGCTTTGCAATATTCAAGATACAATTGGTGGCAAACCCGTATCATTCAGCTGATAATGAAAATGACTGGTGGCTCAACAGACACATCTCAGGATTTGGAGTTTACTGATTGGGTTAAAGTCCGGTCGTTTGCAAGAGAATTTTGGAGCAAGAGATGA
modifications: The nucleotide sequence of PPO7A

Legend:
Assay type in all cases: in vivo
Conditions in all cases: 7 DAT, number of plants of 24 per genotype, grades
[1] = test system: Arabidopsis thaliana T1 plants; experiment: oxyfluorfen tolerance of transgenic Arabidopsis thaliana T1 plants (spray, grade of pesticide damage)
Summary of the method: (§1)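 T1 Arabidopsis (PPO constructs; glufosinate-selected) + vector and WT controls, n=24/genotype, d18 post-sowing. Spray 1×/higher field rate or water: saflufenacil 25/100, sulfentrazone 450/900, flumioxazin 60/240, oxyfluorfen 180/720 g ai/ha. Score 7 DAT, grades 0–3 by injured leaf area.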

[2] = test system: Arabidopsis thaliana T1 plants; experiment: saflufenacil tolerance of transgenic Arabidopsis thaliana T1 plants (spray, grade of pesticide damage)
Summary of the method: as §1

[3] = test system: Arabidopsis thaliana T1 plants; experiment: sulfentrazone tolerance of transgenic Arabidopsis thaliana T1 plants (spray, grade of pesticide damage)
Summary of the method: as §1

[4] = test system: Arabidopsis thaliana T1 plants; experiment: flumioxazin tolerance of transgenic Arabidopsis thaliana T1 plants (spray, grade of pesticide damage)
Summary of the method: as §1

| Molecule | The grade of pesticide damage/plant: grade 0 ([1]; oxyfluorfen 180 g ai/ha (1×)) [plant] | The grade of pesticide damage/plant: grade 1 ([1]; oxyfluorfen 180 g ai/ha (1×)) [plant] | The grade of pesticide damage/plant: grade 2 ([1]; oxyfluorfen 180 g ai/ha (1×)) [plant] | The grade of pesticide damage/plant: grade 3 ([1]; oxyfluorfen 180 g ai/ha (1×)) [plant] | The grade of pesticide damage/plant: grade 0 ([1]; oxyfluorfen 720 g ai/ha (4×)) [plant] | The grade of pesticide damage/plant: grade 1 ([1]; oxyfluorfen 720 g ai/ha (4×)) [plant] | The grade of pesticide damage/plant: grade 2 ([1]; oxyfluorfen 720 g ai/ha (4×)) [plant] | The grade of pesticide damage/plant: grade 3 ([1]; oxyfluorfen 720 g ai/ha (4×)) [plant] | The grade of pesticide damage/plant: grade 0 ([2]; saflufenacil 25 g ai/ha (1×)) [plant] | The grade of pesticide damage/plant: grade 1 ([2]; saflufenacil 25 g ai/ha (1×)) [plant] | The grade of pesticide damage/plant: grade 2 ([2]; saflufenacil 25 g ai/ha (1×)) [plant] | The grade of pesticide damage/plant: grade 3 ([2]; saflufenacil 25 g ai/ha (1×)) [plant] | The grade of pesticide damage/plant: grade 0 ([2]; saflufenacil 100 g ai/ha (4×)) [plant] | The grade of pesticide damage/plant: grade 1 ([2]; saflufenacil 100 g ai/ha (4×)) [plant] | The grade of pesticide damage/plant: grade 2 ([2]; saflufenacil 100 g ai/ha (4×)) [plant] | The grade of pesticide damage/plant: grade 3 ([2]; saflufenacil 100 g ai/ha (4×)) [plant] | The grade of pesticide: grade 0 ([3]; sulfentrazone 450 g ai/ha (1×)) | The grade of pesticide: grade 1 ([3]; sulfentrazone 450 g ai/ha (1×)) | The grade of pesticide: grade 2 ([3]; sulfentrazone 450 g ai/ha (1×)) | The grade of pesticide: grade 3 ([3]; sulfentrazone 450 g ai/ha (1×)) | other results |
| --- | --- | --- | --- | --- | --- | --- | --- | --- | --- | --- | --- | --- | --- | --- | --- | --- | --- | --- | --- | --- | --- |
| B1 | 24 | 0 | 0 | 0 | 20 | 4 | 0 | 0 | 24 | 0 | 0 | 0 | 0 | 24 | 0 | 0 | 24 | 0 | 0 | 0 | The grade of pesticide: grade 0 ([3]; sulfentrazone 900 g ai/ha (2×)): 18; The grade of pesticide: grade 1 ([3]; sulfentrazone 900 g ai/ha (2×)): 6; The grade of pesticide: grade 2 ([3]; sulfentrazone 900 g ai/ha (2×)): 0; The grade of pesticide: grade 3 ([3]; sulfentrazone 900 g ai/ha (2×)): 0; The grade of pesticide damage/plant: grade 0 ([4]; flumioxazin 60 g ai/ha (1×)): 24 plant; The grade of pesticide damage/plant: grade 1 ([4]; flumioxazin 60 g ai/ha (1×)): 0 plant; The grade of pesticide damage/plant: grade 2 ([4]; flumioxazin 60 g ai/ha (1×)): 0 plant; The grade of pesticide damage/plant: grade 3 ([4]; flumioxazin 60 g ai/ha (1×)): 0 plant; The grade of pesticide damage/plant: grade 0 ([4]; flumioxazin 240 g ai/ha (4×)): 24 plant; The grade of pesticide damage/plant: grade 1 ([4]; flumioxazin 240 g ai/ha (4×)): 0 plant; The grade of pesticide damage/plant: grade 2 ([4]; flumioxazin 240 g ai/ha (4×)): 0 plant; The grade of pesticide damage/plant: grade 3 ([4]; flumioxazin 240 g ai/ha (4×)): 0 plant |
| B2 | 24 | 0 | 0 | 0 | 20 | 4 | 0 | 0 | 24 | 0 | 0 | 0 | 0 | 24 | 0 | 0 | 24 | 0 | 0 | 0 | The grade of pesticide: grade 0 ([3]; sulfentrazone 900 g ai/ha (2×)): 20; The grade of pesticide: grade 1 ([3]; sulfentrazone 900 g ai/ha (2×)): 4; The grade of pesticide: grade 2 ([3]; sulfentrazone 900 g ai/ha (2×)): 0; The grade of pesticide: grade 3 ([3]; sulfentrazone 900 g ai/ha (2×)): 0; The grade of pesticide damage/plant: grade 0 ([4]; flumioxazin 60 g ai/ha (1×)): 24 plant; The grade of pesticide damage/plant: grade 1 ([4]; flumioxazin 60 g ai/ha (1×)): 0 plant; The grade of pesticide damage/plant: grade 2 ([4]; flumioxazin 60 g ai/ha (1×)): 0 plant; The grade of pesticide damage/plant: grade 3 ([4]; flumioxazin 60 g ai/ha (1×)): 0 plant; The grade of pesticide damage/plant: grade 0 ([4]; flumioxazin 240 g ai/ha (4×)): 24 plant; The grade of pesticide damage/plant: grade 1 ([4]; flumioxazin 240 g ai/ha (4×)): 0 plant; The grade of pesticide damage/plant: grade 2 ([4]; flumioxazin 240 g ai/ha (4×)): 0 plant; The grade of pesticide damage/plant: grade 3 ([4]; flumioxazin 240 g ai/ha (4×)): 0 plant |
| B3 | 24 | 0 | 0 | 0 | 20 | 4 | 0 | 0 | 24 | 0 | 0 | 0 | 4 | 20 | 0 | 0 | 24 | 0 | 0 | 0 | The grade of pesticide: grade 0 ([3]; sulfentrazone 900 g ai/ha (2×)): 22; The grade of pesticide: grade 1 ([3]; sulfentrazone 900 g ai/ha (2×)): 2; The grade of pesticide: grade 2 ([3]; sulfentrazone 900 g ai/ha (2×)): 0; The grade of pesticide: grade 3 ([3]; sulfentrazone 900 g ai/ha (2×)): 0; The grade of pesticide damage/plant: grade 0 ([4]; flumioxazin 60 g ai/ha (1×)): 24 plant; The grade of pesticide damage/plant: grade 1 ([4]; flumioxazin 60 g ai/ha (1×)): 0 plant; The grade of pesticide damage/plant: grade 2 ([4]; flumioxazin 60 g ai/ha (1×)): 0 plant; The grade of pesticide damage/plant: grade 3 ([4]; flumioxazin 60 g ai/ha (1×)): 0 plant; The grade of pesticide damage/plant: grade 0 ([4]; flumioxazin 240 g ai/ha (4×)): 24 plant; The grade of pesticide damage/plant: grade 1 ([4]; flumioxazin 240 g ai/ha (4×)): 0 plant; The grade of pesticide damage/plant: grade 2 ([4]; flumioxazin 240 g ai/ha (4×)): 0 plant; The grade of pesticide damage/plant: grade 3 ([4]; flumioxazin 240 g ai/ha (4×)): 0 plant |
